Assay results taken from the RNAGym collection of RNA variant scans (doi:10.7554/elife.90254).

B1: OR4K15 (parent)
chain: GUUAACGGUCAUAGGCCAUGGAAACUAGGAGCACCAUUUCGCUGCCAGUGAAGAAAUGAACAAAGAAAAUCUGGGCCAGGCAGGCAUCAAAAGAAAUAGUCUUGCGCUCAACCAGAAAGUCUGUAAUCAUUUUAAGGGUA

Variants of: B1
Assay: self-cleavage, relative activity (ratio to wild type); higher = more cleavage; in vitro, sequencing; the parent is a self-cleaving ribozyme

Variant	self-cleavage
A47G A78U	0.14
A47G A78G	0.26
C46A U97A	1.43
C45G A55G	1.73
A47G A114G	0.24
C45U U108A	0.01
C46U A129G	1.52
G44C A78G	0.52
G44U	1.91
G44C	1.33
G44A	1.53
G44U A66U	2.02
A47U A68G	0.48
A47G A96G	1.18
U43C G136A	1.75
C46U U87C	1.68
A47G U131A	0.62
A47G U131C	0.71
U43C A92G	1.24
A47G A54G	1.22
A47G A54U	0.97
G44U A95G	1.73
C45U U49G	1.93
C46U U139A	1.41

Variant	self-cleavage
C46U U139C	2.16
U43A U120G	1.16
U43A U120A	1.57
U43A U120C	0.37
C46U A89G	2.15
U43A A110G	0.19
C45G U131C	0.41
A47G A134G	0.84
U43G A54C	1.71
C46A A52G	1.25
U43G A134G	0.89
U43C A86G	1.32
U43C U131C	1.36
U43C A47G	0.98
A47G A82U	0.07
A47G A82G	0.51
A47C A116G	1.3
U43A U87A	1.94
U43A U87C	1.55
A47G A90U	0.8
A47G A62G	0.63
A47U U87C	1.34
A47G G115U	0.09
A47G U100G	2.14

Variant	self-cleavage
U43G A111G	0.03
A47C C105U	0.32
A47U A114U	0.06
A47C A67G	0.84
C46A A118U	0.26
U43C A82G	0.36
A47C A92U	0.74
C46U G138A	1.91
A47U A94G	1.22
A47G A89U	0.42
A47U U108C	0.01
G44A U108C	0.01
U43C U70G	1.28
U43C U70C	0.83
U43C G123A	2.35
C46U A56G	1.12
C45A G99A	0.92
A47U A117C	0.24
A47U U103G	0.03
A47G A111G	0.02
G44C U102C	2.81
A47G A67G	1.12
U43C G138A	2.16
G44A U131C	1.53

Variant	self-cleavage
A47G U127A	1.33
A47G U127C	0.59
A47G A110U	1.15
U43A U130C	1.44
U43G U49C	2.01
A47G A129G	0.64
G48A	1.44
C45U A129G	1.16
C45A U131A	1.29
C46U A116G	1.37
A47U A126C	0.72
A47U A66U	0.99
G44A A95G	1.76
G44A A54G	1.57
U43C A69G	0.94
U43C A91U	1.88
A47U U122C	0.67
C45U A51G	1.58
G44A C77U	2.17
A47G A135G	1.27
U43C A55G	1.07
A47U U49A	0.97
A47U U49C	0.36
C45U A114G	0.75

Variant	self-cleavage
C45U A114U	0.13
U43C U130C	0.47
A47G A86U	2.98
C45A A129G	0.87
G44C A82U	0.27
A47U U132C	1.02
A47U U132A	0.51
A47G C112U	0.01
U43C A90U	1.83
C45U U120C	1.06
G44A G83A	1.24
G44A A64G	1.36
U43A G74C	0.23
A47G U139C	1.45
A47G U139A	1.4
C46U A86G	1.41
U43C A95U	0.49
A47U A90G	0.72
U43C A66G	1.29
A47G U132C	0.47
G44C C46A	1.19
A47U U97A	1.74
A47G A92G	1.02
A47U U102G	0.28

Variant	self-cleavage
A47U U102A	0.45
A47G A59G	0.86
G44U A59G	1.67
G48A A82U	0.12
A47C U120C	1
A47C U120A	2.24
U43C U97G	1.6
A47U U139G	1.4
U43G A51G	2.35
U43G A51U	2.16
U43C A98G	0.44
G44A U97C	0.83
A47G C85U	0.65
G44A U124C	0.45
G44A U124A	1.15
A47G A125G	0.28
A47G A125U	1.01
U43G A125G	1.11
A47U A54G	0.67
U43C U139A	1.3
C46A A91G	0.95
U43A U127C	1.07
A47G U108C	0.01
A47U U100C	2.2

Variant	self-cleavage
A47U A135C	1.32
A47U U131C	0.54
U43C U87A	1.94
U43C U87C	0.35
G48A A59G	1.25
G48A A59U	0.86
C45U A60G	1.29
C46U A62U	1.83
U43C A116U	0.46
U43C A116G	0.53
U43C U100C	2.35
G44A A63G	0.71
G44A A63C	2.07
U43C C107U	0.02
U43C A110G	0.15
C45A U127C	0.26
C45U A68C	1.95
U43C U120C	0.46
G44A A47G	1.27
C46U A69U	1.84
A47G A68U	1.17
A47G A68G	1.23
U43A U49C	1.49
